Here are results for one substance from CN116836273A.

A word on the Kd: it is the equilibrium constant for the complex coming apart. A high value points to a looser complex. For orientation: koff means the rate constant with which the complex falls apart. The kon is the rate constant with which the complex forms. Read a high kon as faster complex formation.

For test [1], the target named is 血清淀粉样蛋白A (Serum amyloid A, SAA) (UniProt P0DJI8). Nature of the test: indirect ELISA, SAA coated at 2 ug/ml, antibody at 60 ng/ml. A general note: In an ELISA, binding on a coated surface is turned into a signal by an enzyme label.
UniProt P0DJI8, sequence (P0DJI8 19-122 limits assumed): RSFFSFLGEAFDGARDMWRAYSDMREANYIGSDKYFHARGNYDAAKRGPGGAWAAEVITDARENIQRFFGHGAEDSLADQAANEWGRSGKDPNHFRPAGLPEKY
For test [2] the target is unchanged. Nature of the test: indirect ELISA, SAA coated at 2 ug/ml, antibody at 0 ng/ml (blank).
Test [3] shares this target. Briefly: indirect ELISA, SAA coated at 2 ug/ml, antibody at 15 ng/ml.
Test [4] has the same target. Nature of the test: indirect ELISA, SAA coated at 2 ug/ml, antibody at 7.5 ng/ml.
Test [5] shares this target. Briefly: BLI, antibody captured on AMC sensor, SAA in solution.
The target is the same in test [6]. Briefly: indirect ELISA, SAA coated at 2 ug/ml, antibody at 3.75 ng/ml.
The target is the same in test [7]. Nature of the test: indirect ELISA, SAA coated at 2 ug/ml, antibody at 30 ng/ml.

对照 (control antibody): the OD (OD450 (ref. 630 nm)) stood at 1.79 in test [1]; 0.009 in test [2]; 0.912 in test [3]; 0.562 in test [4]; 0.316 in test [6]; 1.63 in test [7]. In addition, the Kd in test [5] amounted to 7.98 nM. The substance also had a koff in test [5] of 9.82e-05 s⁻¹. Moreover, the kon in test [5] was 12300 M⁻¹ s⁻¹.
